Results taken from patent US20190002841A1.

Assays:
[1] = target: AAV3B capsid (vector AAV2/3B.CB7.CI.ffluciferase.RBG) (Adeno-associated virus 3B); assay: AVB Sepharose HiTrap column, share washed off in wash 2 (1 M NaCl)
[2] = target: AAV3B-NKDKLN capsid (AAV3B with SPAKFA replaced by NKDKLN of AAV9) (Adeno-associated virus 3B); assay: as above
[3] = target: AAV3B capsid (vector AAV2/3B.CB7.CI.ffluciferase.RBG) (Adeno-associated virus 3B); assay: AVB Sepharose HiTrap column, AAV3B against AAV3B-NKDKLN
[4] = target: AAV3B-NKDKLN capsid (AAV3B with SPAKFA replaced by NKDKLN of AAV9) (Adeno-associated virus 3B); assay: as above
[5] = target: AAV3B capsid (vector AAV2/3B.CB7.CI.ffluciferase.RBG) (Adeno-associated virus 3B); assay: AVB Sepharose HiTrap column, qPCR of fractions; clarified AAV3B product
[6] = target: AAVrh10 capsid (vector AAV2/rh.10.CMV.PI.Cre.RBG) (Adeno-associated virus rh.10); assay: AVB Sepharose HiTrap column, qPCR of fractions; average of two runs
[7] = target: AAV3B capsid (vector AAV2/3B.CB7.CI.ffluciferase.RBG) (Adeno-associated virus 3B); assay: AVB Sepharose HiTrap column, unbound share in flow-through
[8] = target: AAV3B-NKDKLN capsid (AAV3B with SPAKFA replaced by NKDKLN of AAV9) (Adeno-associated virus 3B); assay: as above
[9] = target: AAV3B capsid (vector AAV2/3B.CB7.CI.ffluciferase.RBG) (Adeno-associated virus 3B); assay: AVB Sepharose HiTrap column, share washed off in wash 1
[10] = target: AAV3B-NKDKLN capsid (AAV3B with SPAKFA replaced by NKDKLN of AAV9) (Adeno-associated virus 3B); assay: as above
[11] = target: AAV8-SPAKFA capsid (AAV8 with NQSKLN replaced by SPAKFA) (Adeno-associated virus 8); assay: AVB Sepharose HiTrap column, clarified supernatant, wild type against SPAKFA mutant
[12] = target: AAV9 capsid (vector with CB7.CI.ffluciferase.RBG) (Adeno-associated virus 9); assay: as above
[13] = target: AAVrh64R1 capsid (vectors AAV2/rh.64R1.CMV.PI.EGFP.WPRE.bGH and rh.64R1 with CB7.CI.ffluciferase.RBG) (Adeno-associated virus rh.64R1); assay: as above
[14] = target: rh.64R1-SPAKFA capsid (rh.64R1 with NQAKLN replaced by SPAKFA) (Adeno-associated virus rh.64R1); assay: as above
[15] = target: AAV8 capsid (vectors AAV2/8.CMV.ffluciferase.SV40 and AAV8 with CB7.CI.ffluciferase.RBG) (Adeno-associated virus 8); assay: as above
[16] = target: AAV9-SPAKFA capsid (AAV9 with NKDKLN replaced by SPAKFA) (Adeno-associated virus 9); assay: as above
[17] = target: AAVrh64R1 capsid (vectors AAV2/rh.64R1.CMV.PI.EGFP.WPRE.bGH and rh.64R1 with CB7.CI.ffluciferase.RBG) (Adeno-associated virus rh.64R1); assay: AVB Sepharose HiTrap column, qPCR of fractions; mix rh.64R1+rh.10
[18] = target: AAVhu37 capsid (vector AAV2/hu.37.TBG.EGFP.bGH) (Adeno-associated virus hu.37); assay: AVB Sepharose HiTrap column, qPCR of fractions; mix AAV8+hu.37+rh.10
[19] = target: AAV8 capsid (vectors AAV2/8.CMV.ffluciferase.SV40 and AAV8 with CB7.CI.ffluciferase.RBG) (Adeno-associated virus 8); assay: as above

## AVB Sepharose High Performance affinity resin ligand (14 kD fragment from a single chain llama antibody expressed in yeast) (VHH)
[1]
  % of vector in the wash 2 (W2) fraction: 0.3%
[2]
  % of vector in the wash 2 (W2) fraction: 4.6%
[3]
  elution fraction yield (%): 98%
[4]
  elution fraction yield (%): 87%
[5]
  % of vector genomes recovered in the elution fraction: 98%
[6]
  % of loaded vector genome in the elution fraction: 84%
[7]
  % of vector in the flow-through (FT) fraction: 1.3%
[8]
  % of vector in the flow-through (FT) fraction: 8.2%
[9]
  % of vector in the wash 1 (W1) fraction: 0%
[10]
  % of vector in the wash 1 (W1) fraction: 0.1%
[11]
  % recovery of loaded vector in the elution fraction (of total fractions): 93%
[12]
  % recovery of loaded vector in the elution fraction (of total fractions): 0.6%
[13]
  % recovery of loaded vector in the elution fraction (of total fractions): 18%
[14]
  % recovery of loaded vector in the elution fraction (of total fractions): 91%
[15]
  % recovery of loaded vector in the elution fraction (of total fractions): 30%
[16]
  % recovery of loaded vector in the elution fraction (of total fractions): 51%
[17]
  % of loaded vector genome in the elution fraction: 22%
[18]
  % of loaded vector genome in the elution fraction: 82%
[19]
  % of loaded vector genome in the elution fraction: 20%
